Measured values from patent publication US20240174985A1, “METHOD FOR PRODUCING OVARIAN SOMATIC CELL-LIKE CELLS, AND METHOD FOR INDUCING DIFFERENTIATION OF PRIMATE PLURIPOTENT STEM CELLS INTO OVARIAN SOMATIC CELL-LIKE CELLS” (Kyoto University, priority 2021, published 2024).

Key:
Type in all cases: cell-based
human iPS cells [1] = assay: Induction of differentiation from human iPS cells into ovarian somatic cell-like cells (FACS of OSR1-tdTomato/NR5A1-EGFP reporters, observation of embryoid bodies); conditions: Activin A 10 ng/ml added between day 2 and day 4
Excerpt: In order to conveniently observe the expression of genes typical at each developmental stage, a human iPS cell line 1390G3 was genetically modified, and a DNA sequence that emits red fluorescence (tdTomato) with the expression of the OSR1 gene, green fluorescence (EGFP) with the expression of the NR5A1 gene, and red fluorescence (tdTomato) with the expression of the FOXL2 gene was manufactured (see FIG. 1, and after introduction into the chromosome, a portion of “PGKp-Neo (or Puro)-pA” portion was deleted with Cre). An iPS cell line into which two DNA sequences of OSR1 and NR5A1 had been introduced (which may be hereinafter abbreviated as “OTNG”), and an iPS cell line into which two DNA sequences of NR5A1 and FOXL2 had been introduced (which may be hereinafter abbreviated as “NGFT”) were manufactured. In the present test, the OTNG strain was used in most of the experiments. Furthermore, NR5A1 and SF1 are the same gene.
The cells at each stage were analyzed using a flow cytometer (BD FACSAria III).
The ES cells of monkeys and human iPS cells are considered to be similar to EpiLC in a slightly advanced state in terms of differentiation, as compared with mouse ES cells. Therefore, in the examination using monkey or human pluripotent stem cells in the present test, step 0 was omitted and the process was started from step 1. […]

human iPS cells [2] = assay: Quantitative PCR of marker genes in cells induced from human iPS cells; conditions: Activin A 10 ng/mL added between day 2 and day 4, fibronectin plane culture
Excerpt: The relative expression level of each marker gene was confirmed using a PCR apparatus (BIO-RAD CFX384 Real-Time System) with the following primers and conditions. In the tables, the PPIA gene and the RPLP0 gene were used as housekeeping genes. The difference in qPCR is a difference from the average value taken as “(PPIA+RPLP0)/2”. In addition, the ERCC gene was used as an absolute control between samples.

[3] = test system: cynomolgus monkey ES cells

B1: Activin A: TGF-β family member produced by multiple cell species during development (protein, UniProt P08476 311-426, looked up)
Inhibin beta A chain: GLECDGKVNICCKKQFFVSFKDIGWNDWIIAPSGYHANYCEGECPSHIAGTSGSSLSFHSTVINHYRMRGHSPFANLKSCCVPTKLRPMSMLYYDDGQNIIKKDIQNMIVEECGCS
proportion of the OSR1− (negative) and SF1+ (positive) cells (human iPS cells [1]; plane culture, FACS day 15): further increased | size of the embryoid bodies (human iPS cells [1]; step 1 plane culture on fibronectin-coated plate): increased over time | expression of GATA3 and HOXB9 (human iPS cells [2]; day 15): decreased | expression of FOXL2 (human iPS cells [2]; day 27): almost equivalent to that in the ovarian somatic cells collected from the living body | expression of OSR1 ([3]; added in step 1: bFGF 50 ng/mL entire period, Activin A 10 ng/ml one day from day 1, FACS days 2, 4, 6): acted toward enhancing the expression of OSR1 | improvement of induction ([3]; addition of Activin A after day 1 of step 1, FACS days 16 and 28): no improvement was observed | improvement of the induction of NR5A1-positive cells ([3]; bFGF 50 ng/ml and Activin A 10 ng/ml (only from day 1) in step 1, days 14 and 21): not recognized
